Where a name gives a salt, the structure may show the parent alone. Ends that are not written are not given here. * marks the point of attachment. Biotin = O=C1N[C@H]2[C@H](CS[C@H]2CCCCC(=O)*)N1
Tests used:
[1] = target: T1, DLG1 (PDZ Domain 1, 2) (Homo sapiens, UniProt Q12959); test: G' assay, TABLE 12; assay type: binding; details: A450 nm class of biotinylated PL peptide bound; 0 in conc columns = peptide 10 uM, protein 5 ug/ml
T1 construct: made in house; host or cells: E. coli (DH5alpha, BL21 or JM109)
T1 sequence (Q12959 213-413 limits assumed): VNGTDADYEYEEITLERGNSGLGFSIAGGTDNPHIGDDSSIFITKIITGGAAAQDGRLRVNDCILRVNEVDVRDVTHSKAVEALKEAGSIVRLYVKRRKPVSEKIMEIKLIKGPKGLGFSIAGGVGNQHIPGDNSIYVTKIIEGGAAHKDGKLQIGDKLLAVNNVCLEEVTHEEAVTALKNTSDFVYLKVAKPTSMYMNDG
Protocol: (§1) The third column labeled “Peptide Optimal Concentration” in the tables is a number reflective of the binding interaction between the PL protein and PDZ protein. […] The column labeled “Protein Optimal Concentration” refers to the protein concentration used to assay PL interaction (in ug/ml); a ‘0’ is indicative of 5 ug/ml protein concentration; any other value represents the concentration (in ug/ml) used to determine the dissociation constant for a given interaction.
(§2) Finally, the seventh column labeled “Classification” is another measure of the level of binding. In particular, it provides an absorbance value at 450 nm which indicates the amount of PL peptide bound to the PDZ protein. The following numerical values have the following meanings: ‘1’—A450 nm 0-1; ‘2’—A450 nm 1-2; ‘3’—A450 nm 2-3; ‘4’—A450 nm 3-4; ‘5’—A450 nm of 4 more than 2× repeated; ‘0’—A450 nm 0, i.e., not found to interact. Thus, higher numbers indicate stronger interactions.
(§3) For convenience, the assay conditions described in this section are referred to as the “G′ assay” and the “G″ assay,” with the specific conditions described in the preceding section on G assays being referred to as the “G^0 assay.” The “G′ assay” is identical to the “G^0 assay” except at step (2) the peptide concentration is 10 uM instead of 20 uM. […] Correspondingly, it slightly increases the certainty that detected interactions are of sufficient affinity and half-life to be of biological importance and useful therapeutic targets.

[2] = target: T2, PSD95 (PDZ Domain 1, 2, 3) (Homo sapiens, UniProt P78352); test: G' assay, TABLE 12; assay type: binding; details: A450 nm class of biotinylated PL peptide bound; 0 in conc columns = peptide 10 uM, protein 5 ug/ml
T2 construct: When more than one PDZ domain was cloned, the DNA portion cloned represents the PDZ domains and the cDNA portion located between individual domains; made in house; host or cells: E. coli (DH5alpha, BL21 or JM109)
T2 sequence (P78352 58-398 limits assumed): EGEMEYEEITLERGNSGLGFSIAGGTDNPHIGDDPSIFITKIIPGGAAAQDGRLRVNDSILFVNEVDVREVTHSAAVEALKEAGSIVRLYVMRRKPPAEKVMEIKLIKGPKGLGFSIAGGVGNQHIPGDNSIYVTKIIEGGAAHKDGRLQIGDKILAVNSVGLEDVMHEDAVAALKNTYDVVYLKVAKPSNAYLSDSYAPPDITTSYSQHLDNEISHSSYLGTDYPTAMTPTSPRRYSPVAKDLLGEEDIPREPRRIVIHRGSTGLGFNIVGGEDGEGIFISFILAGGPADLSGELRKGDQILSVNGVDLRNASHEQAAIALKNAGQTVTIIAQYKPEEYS
Protocol: as §1, §2, §3

[3] = target: T3, NeDLG (PDZ Domain 1, 2) (Homo sapiens, UniProt Q92796); test: G' assay, TABLE 12; assay type: binding; details: A450 nm class of biotinylated PL peptide bound; 0 in conc columns = peptide 10 uM, protein 5 ug/ml
T3 construct: When more than one PDZ domain was cloned, the DNA portion cloned represents the PDZ domains and the cDNA portion located between individual domains; made in house; host or cells: E. coli (DH5alpha, BL21 or JM109)
T3 sequence (Q92796 129-315 limits assumed): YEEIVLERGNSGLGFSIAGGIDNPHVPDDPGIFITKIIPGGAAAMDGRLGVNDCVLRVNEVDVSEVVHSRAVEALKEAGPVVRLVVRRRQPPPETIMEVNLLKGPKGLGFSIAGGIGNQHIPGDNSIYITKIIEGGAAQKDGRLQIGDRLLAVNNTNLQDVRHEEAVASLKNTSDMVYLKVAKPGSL
Protocol: as §1, §2, §3

[4] = target: T4, PDZ protein (GST-PDZ fusion) (Homo sapiens, UniProt Q5TCQ9); test: G' assay (10 uM PL peptide), results of TABLE 7 and TABLE 12; assay type: binding; details: PDZ KIAA1634, PDZ Domain 2
T4 construct: made in house; host or cells: E. coli (DH5alpha, BL21 or JM109)
T4 sequence (Q5TCQ9 1-1481): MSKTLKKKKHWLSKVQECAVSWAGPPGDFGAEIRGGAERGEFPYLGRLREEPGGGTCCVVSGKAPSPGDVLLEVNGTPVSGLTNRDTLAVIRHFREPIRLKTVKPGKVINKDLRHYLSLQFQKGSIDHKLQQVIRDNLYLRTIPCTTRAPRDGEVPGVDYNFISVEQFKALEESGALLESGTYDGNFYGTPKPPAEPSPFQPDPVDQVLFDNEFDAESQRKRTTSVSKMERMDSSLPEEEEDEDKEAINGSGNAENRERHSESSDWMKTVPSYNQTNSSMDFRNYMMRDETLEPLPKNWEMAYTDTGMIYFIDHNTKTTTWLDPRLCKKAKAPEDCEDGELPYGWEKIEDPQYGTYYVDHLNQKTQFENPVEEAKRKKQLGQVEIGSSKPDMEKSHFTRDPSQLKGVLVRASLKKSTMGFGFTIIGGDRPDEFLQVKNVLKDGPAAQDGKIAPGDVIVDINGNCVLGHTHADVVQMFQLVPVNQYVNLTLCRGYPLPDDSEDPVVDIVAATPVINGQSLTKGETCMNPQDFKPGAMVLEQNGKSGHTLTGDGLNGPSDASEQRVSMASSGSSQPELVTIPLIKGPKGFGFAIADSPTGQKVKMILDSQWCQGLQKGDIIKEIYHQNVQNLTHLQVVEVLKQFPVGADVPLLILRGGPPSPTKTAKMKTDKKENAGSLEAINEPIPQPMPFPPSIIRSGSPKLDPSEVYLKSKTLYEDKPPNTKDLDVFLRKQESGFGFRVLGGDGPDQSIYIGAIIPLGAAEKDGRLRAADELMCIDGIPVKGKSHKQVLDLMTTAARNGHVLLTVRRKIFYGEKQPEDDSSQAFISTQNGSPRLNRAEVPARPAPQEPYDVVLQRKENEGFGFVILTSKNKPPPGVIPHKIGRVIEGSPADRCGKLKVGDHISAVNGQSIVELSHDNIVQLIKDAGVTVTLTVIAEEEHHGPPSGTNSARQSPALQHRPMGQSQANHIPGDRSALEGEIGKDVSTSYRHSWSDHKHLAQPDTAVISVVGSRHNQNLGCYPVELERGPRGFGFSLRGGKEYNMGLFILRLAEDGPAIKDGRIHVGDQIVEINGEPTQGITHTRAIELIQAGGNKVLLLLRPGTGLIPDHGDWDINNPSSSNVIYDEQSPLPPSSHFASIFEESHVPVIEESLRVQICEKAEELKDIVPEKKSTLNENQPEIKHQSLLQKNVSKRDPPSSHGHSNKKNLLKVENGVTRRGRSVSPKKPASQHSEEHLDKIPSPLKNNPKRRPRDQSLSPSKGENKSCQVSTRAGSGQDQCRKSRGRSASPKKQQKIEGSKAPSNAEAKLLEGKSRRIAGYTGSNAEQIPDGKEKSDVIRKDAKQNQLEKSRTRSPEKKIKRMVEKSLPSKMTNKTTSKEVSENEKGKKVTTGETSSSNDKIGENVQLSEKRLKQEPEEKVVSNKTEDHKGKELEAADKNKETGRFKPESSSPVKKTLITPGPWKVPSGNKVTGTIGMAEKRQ
In short: (§4)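 Binding classes derive from A450 nm of bound biotin-tagged PL peptide. A score of 5 needs A450 above 4 in more than two repeats.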

[5] = target: T5, PDZ protein (GST-PDZ fusion) (Homo sapiens, UniProt Q12923); test: as above; assay type: binding; details: PDZ PTPL-1, PDZ Domain 2
T5 construct: made in house; host or cells: E. coli (DH5alpha, BL21 or JM109)
In short: as §4

[6] = target: T6, PDZ protein (GST-PDZ fusion) (Homo sapiens, UniProt P78352); test: as above; assay type: binding; details: PDZ PSD95, PDZ Domain 1, 2, 3
T6 construct: made in house; host or cells: E. coli (DH5alpha, BL21 or JM109)
T6 sequence (P78352 whole entry, the tested form may be a part): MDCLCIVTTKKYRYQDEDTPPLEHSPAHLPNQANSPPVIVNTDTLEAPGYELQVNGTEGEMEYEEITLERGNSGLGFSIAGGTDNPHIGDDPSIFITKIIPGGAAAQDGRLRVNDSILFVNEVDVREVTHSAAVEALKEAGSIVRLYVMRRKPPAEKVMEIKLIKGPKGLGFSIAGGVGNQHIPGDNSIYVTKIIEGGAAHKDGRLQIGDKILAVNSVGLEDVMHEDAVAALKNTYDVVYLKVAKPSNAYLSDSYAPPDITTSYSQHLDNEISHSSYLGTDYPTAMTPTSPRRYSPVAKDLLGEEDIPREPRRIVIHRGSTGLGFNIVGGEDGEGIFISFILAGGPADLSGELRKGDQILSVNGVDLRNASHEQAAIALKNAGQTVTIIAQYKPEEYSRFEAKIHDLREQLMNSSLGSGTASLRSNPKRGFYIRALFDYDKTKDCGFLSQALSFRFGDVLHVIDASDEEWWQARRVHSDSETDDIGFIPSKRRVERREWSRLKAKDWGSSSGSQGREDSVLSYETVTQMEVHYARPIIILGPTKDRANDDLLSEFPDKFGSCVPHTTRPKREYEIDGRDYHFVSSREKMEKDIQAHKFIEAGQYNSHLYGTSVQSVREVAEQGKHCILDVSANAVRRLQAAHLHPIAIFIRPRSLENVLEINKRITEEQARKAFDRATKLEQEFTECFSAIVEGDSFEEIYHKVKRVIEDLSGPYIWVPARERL
In short: as §4

[7] = target: T7, PDZ protein (GST-PDZ fusion) (Homo sapiens, UniProt Q6P0Q8); test: as above; assay type: binding; details: PDZ KIAA807
T7 construct: made in house; host or cells: E. coli (DH5alpha, BL21 or JM109)
T7 sequence (Q6P0Q8 whole entry, the tested form may be a part): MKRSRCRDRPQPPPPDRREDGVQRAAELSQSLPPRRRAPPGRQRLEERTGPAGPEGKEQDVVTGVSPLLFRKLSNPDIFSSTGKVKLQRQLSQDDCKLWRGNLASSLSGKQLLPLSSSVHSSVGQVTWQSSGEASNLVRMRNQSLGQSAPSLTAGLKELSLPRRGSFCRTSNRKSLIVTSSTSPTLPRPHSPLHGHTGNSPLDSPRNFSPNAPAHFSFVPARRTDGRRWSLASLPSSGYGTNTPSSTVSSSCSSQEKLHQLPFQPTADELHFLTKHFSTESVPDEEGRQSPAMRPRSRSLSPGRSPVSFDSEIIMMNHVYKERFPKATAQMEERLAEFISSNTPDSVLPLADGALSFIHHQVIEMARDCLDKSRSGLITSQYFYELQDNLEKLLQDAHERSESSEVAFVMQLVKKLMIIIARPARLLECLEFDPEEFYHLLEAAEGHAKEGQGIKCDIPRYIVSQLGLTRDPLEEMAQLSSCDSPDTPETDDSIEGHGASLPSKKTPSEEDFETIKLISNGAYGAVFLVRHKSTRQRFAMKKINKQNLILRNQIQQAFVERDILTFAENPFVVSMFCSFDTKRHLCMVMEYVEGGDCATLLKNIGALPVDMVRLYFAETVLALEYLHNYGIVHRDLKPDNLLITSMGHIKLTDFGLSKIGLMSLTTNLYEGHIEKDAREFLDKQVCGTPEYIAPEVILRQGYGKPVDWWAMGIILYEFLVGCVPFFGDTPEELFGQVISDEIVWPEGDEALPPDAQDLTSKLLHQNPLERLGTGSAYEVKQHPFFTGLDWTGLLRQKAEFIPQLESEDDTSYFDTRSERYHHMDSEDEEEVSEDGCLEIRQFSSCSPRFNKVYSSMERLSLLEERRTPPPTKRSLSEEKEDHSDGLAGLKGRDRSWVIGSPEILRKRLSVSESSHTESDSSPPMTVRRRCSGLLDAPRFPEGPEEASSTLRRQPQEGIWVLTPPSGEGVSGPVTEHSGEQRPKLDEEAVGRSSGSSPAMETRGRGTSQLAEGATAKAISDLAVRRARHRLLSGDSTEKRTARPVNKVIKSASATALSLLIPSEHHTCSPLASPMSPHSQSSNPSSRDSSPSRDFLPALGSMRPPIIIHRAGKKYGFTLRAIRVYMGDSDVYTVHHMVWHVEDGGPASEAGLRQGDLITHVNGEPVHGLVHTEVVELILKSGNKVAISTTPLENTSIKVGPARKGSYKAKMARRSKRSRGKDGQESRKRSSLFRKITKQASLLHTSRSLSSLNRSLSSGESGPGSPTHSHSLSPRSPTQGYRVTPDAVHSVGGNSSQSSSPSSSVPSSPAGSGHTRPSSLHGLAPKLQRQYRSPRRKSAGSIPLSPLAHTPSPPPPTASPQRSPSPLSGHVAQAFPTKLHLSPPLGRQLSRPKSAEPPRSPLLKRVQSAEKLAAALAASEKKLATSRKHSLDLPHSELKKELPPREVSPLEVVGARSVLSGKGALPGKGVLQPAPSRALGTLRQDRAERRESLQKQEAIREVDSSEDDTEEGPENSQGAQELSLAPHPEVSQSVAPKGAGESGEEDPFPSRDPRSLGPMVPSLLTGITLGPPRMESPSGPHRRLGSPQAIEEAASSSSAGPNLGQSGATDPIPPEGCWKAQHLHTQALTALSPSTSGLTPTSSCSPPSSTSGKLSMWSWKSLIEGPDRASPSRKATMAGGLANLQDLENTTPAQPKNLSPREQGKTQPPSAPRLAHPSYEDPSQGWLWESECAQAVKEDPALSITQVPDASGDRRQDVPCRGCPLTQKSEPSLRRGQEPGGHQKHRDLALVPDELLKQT
In short: as §4

[8] = target: T8, PDZ protein (GST-PDZ fusion) (Homo sapiens, UniProt O15021); test: as above; assay type: binding; details: PDZ KIAA0303, PDZ Domain 1
T8 construct: made in house; host or cells: E. coli (DH5alpha, BL21 or JM109)
In short: as §4

[9] = tested on: PDZ protein (GST-PDZ fusion); test: as above; assay type: binding
In short: as §4

[10] = target: T9, PDZ protein (GST-PDZ fusion) (Homo sapiens, UniProt O14907); test: as above; assay type: binding; details: PDZ TIP1, PDZ Domain 1
T9 construct: made in house; host or cells: E. coli (DH5alpha, BL21 or JM109)
T9 sequence (O14907 1-124): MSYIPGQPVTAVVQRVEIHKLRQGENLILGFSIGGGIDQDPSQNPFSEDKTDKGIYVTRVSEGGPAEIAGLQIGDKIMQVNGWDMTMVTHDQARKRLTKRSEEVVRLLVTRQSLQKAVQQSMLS
In short: as §4

[11] = tested on: Mouse T cell lines stimulated with anti-mouse CD3; test: T cell stimulation assay, anti-mouse CD3, IFNγ ELISA (FIG. 1B); assay type: cell-based; details: 10 μM Tat-peptide; compared to Tat-peptide alone
Protocol: Cell Cultures Cells were maintained and tested in RPMI 1640 media supplemented with 10% fetal calf serum (HyClone), 2 mM glutamine, 10 mM Hepes, 100 U/ml penicillin, 100 μg/ml streptomycin, 0.1 mM non-essential amino acids, 1 mM sodium pyruvate, and 50 μM beta mercaptoethanol.
Supernatants were assayed for cytokine production following activation of T cell lines. Mouse T cell lines were stimulated using two different methods, either with antigen and antigen presenting cells or anti-mouse CD3.
Antibody against mouse CD3 (Pharmigen #145-2C11) was coated overnight at 4° C. using 96-well flat bottom Elisa plates at a final concentration of 0.5 μg/ml, diluted in PBS. Just prior to use, plates were washed three times with 200 μl/well PBS to remove excess anti-CD3. […]
IFNγ was measured from cell supernatants, described above, at ambient temperature using the Endogen, Inc. ELISA protocol 3. […] The presence of IFNγ was detected with a biotin-labeled anti-mouse IFNγ monoclonal antibody (MM700B, Endogen, Inc.,). […] The absorbance at 450 nm was measured using a microtiter plate reader (Thermo Max, Molecular Devices) and the concentration of unknown IFNγ from cell supernatants was calculated from a standard curve generated by Softmax Pro software (Molecular Devices).

[12] = tested on: hSyntenin : Presenilin (115L); test: G assay with FDA approved drug (Example 7, TABLE 10A); assay type: binding; details: OD in absence of drug 1.1; drug concentration per TABLE 11; read after 30 minutes
Protocol: For certain of the PDZ proteins and PL proteins shown to bind together and for which Kd values had been obtained, additional testing was conducted to determine whether certain pharmaceutical compounds would act to antagonize or agonize the interactions. Assays were conducted as for the G′ assay described supra both in the presence and absence of test compound, except that 50 ul of a 10 uM solution of the biotinylated PL peptide is allowed to react with the surface bearing the PDZ-domain polypeptide instead of a 20 uM solution as specified in step (2) of the assay.
In both tables, the first column (left to right) entitled “PDZ domain” lists the gene name of GST-PDZ domain fusion (see TABLE 9). Entries having two numbers separated by a slash indicate which PDZ domain was utilized. For example, in TABLE 10A, the entry for ZO-3 is 1/3. This means that PDZ domain 1 of 3 was used.
The second column labeled “PL” indicates the name of the PDZ ligand (see TABLES 10A and 10B) interacting with the PDZ domain. The third column entitled “Drug” lists the common or trade name of pharmaceutical compound tested and found to modulate the specific PDZ-PL interaction (suppliers and chemical information are listed in TABLE 11). The final column with the heading “Change in OD” indicates the change in absorbance at 450 nm of the assay in the absence (first number) or presence (second number) of chemical compound.
Many FDA approved drugs have unknown mechanism of function. It is quite possible that some of these drugs function by disrupting or increasing PDZ/PL interactions. This possibility was examined by using the ‘G Assay’ (Example 3 section D). FDA approved drugs were incubated in the presence of the labeled peptide and compared to the same interaction without drug to determine if there was an effect on specific PDZ:PL interactions (drugs added with peptide at step 9 in Example 3D). The primary focus of this experiment was on drugs involved in treatment of depression (amitriptyline, desipramine, trimipramine, benztropine, and nortryptilline) and epilepsy (valproic acid). No modes of action are known for these drugs.
Therapeutic dose was determined by guidelines given in the Physician's Desk Reference and in the assay, 200 times this amount was used. If a dosage range was given, the upper end of the range was used. Each interaction listed in TABLES 10A & B was tested in the ‘G Assay’ (see Example 3) against each of the drugs listed in TABLE 11. The concentration of GST-fusion protein and peptide used in the assay represent the Kd and were determined by titration. These values can be found in TABLE 7. The drugs were added to the peptide before addition to the well containing the PDZ protein. Otherwise, the assay was carried out as described and read at 450 nm after 30 minutes of developing. For the sequences of the PDZs and PLs used in these tests, see TABLES 8 & 9.
List of interactions and therapeutics for which a modulation of binding was observed. Concentrations at which the GST-PDZ fusion protein and labeled peptide were used can be found in Table 7 or Table 12.

Compound: HPTDITGLPNLSDPSVSTVV (Biotin-HPTDITGLPNLSDPSVSTVV) [NMDA R2C]
- Classification [1]: 1 (A450 nm 0-1)
- Classification [2]: 1 (A450 nm 0-1)
- Classification [3]: 2 (A450 nm 1-2)
- Classification [4]: 1 (A450 nm 0-1)
- Classification [5]: 1 (A450 nm 0-1)

Compound: A2AB_HUMAN (modified) (Biotin-QDFRRAFRRILARPWTQTAW; not fully specified)
- Classification [6]: 5 (A450 nm of 4 more than 2× repeated)
- Classification [7]: 4 (A450 nm 3-4)
- Classification [8]: 4 (A450 nm 3-4)
- Classification ([9]; PDZ BAI-1, PDZ Domain 2): 4 (A450 nm 3-4)
- Classification ([9]; PDZ BAI-1, PDZ Domain 4): 5 (A450 nm of 4 more than 2× repeated)
- Classification [10]: 5 (A450 nm of 4 more than 2× repeated)

Compound: GYGRKKRRQRRRGMTSSSSVV
- T cell activation mediated by monoclonal anti-CD3 (IFNγ production) [11]: inhibited T cell activation

Compound: GYGRKKRRQRRRGSISSSAEV [Tat-CLASP1 fusion peptide]
- T cell activation mediated by monoclonal anti-CD3 (IFNγ production) [11]: did not inhibit T cell activation

Compound: CC(CN(C)C)CN1c2ccccc2CCc2ccccc21 (centres unmarked) [Trinipramine, TRIMIPRAMINE MALEATE]
- Change in OD: absorbance at 450 nm in presence of drug [12]: 1.1 to 2.2

Source: patent US20050282743A1, “Molecular interactions in cells” (Arbor Vita Corporation, priority 2001, published 2005)
